Where a chain is given by its changes, count along the chain named.
B1: hu326-1 (antibody, IgG2, V domains shown, not shown: a dimerising Fc or GST)
VH: QVQLVQSGSELKKPGASVKVSCKASGYTFTNYGMNWVRQAPGQGLEWMGWINNNNGEPTYAQGFRGRFVFSLDTSASTAYLQISSLKTEDTAVYFCARDVMDYWGQGTTVTVSS
VL: DIVLTQSPASLAVSPGQRATITCRASESVDNYGYSFMHWYQQKPGQPPKLLIYRASNLESGVPARFSGSGSRTDFTLTINPVEANDTANYYCQQSKEYPTFGGGTKVEIKR
notes: domain: Ig kappa C-region; Initial humanized version, IgG2 / kappa
B2: ch326 (antibody, human IgG2, V domains shown, not shown: a dimerising Fc or GST)
VH: QIQLVQSGPELKKPGETVKISCKASGYTFTNYGMNWVKQAPGKGLKWMGWINNNNGEPTYAEEFKGRFAFSLETSASTAYLQINNLKNEDTATYFCARDVMDYWGQGTSVTVSS
VL: B1 VL with P15L, T22S, K49Q, V62I, D74G, N85D, T87V, N89T, V107L, I109V
notes: domain: Ig kappa C-region; Murine VH and Vκ of mu326 on human IgG2 / kappa
B3: Fab hu317-1_Vh / hu317-1_Vκ (Fab, V domains shown)
VH: QVQLQESGPGLVKPSETLSLTCTVSGFSLTSYGVHWIRQPPGKGLEWLGVIWAGGSTNYNPSLKSRLTISKDNSKSQVSLKMSSVTAADTAVYYCARAYGNYWYIDVWGQGTTVTVSS
VL: DIVMTQSPDSLAVSLGERATINCKASQSVSNDVAWYQQKPGQPPKLLINYAFHRFTGVPDRFSGSGYGTDFTLTISSLQAEDVAVYYCHQAYSSPYTFGGGTKLEIK
B4: Fab hu317-2_K71V / hu317-1_Vκ (Fab, V domains shown)
VH: B3 VH with K71V
VL: B3 VL
B5: Fab hu317-2_S76N / hu317-1_Vκ (Fab, V domains shown)
VH: B3 VH with S76N
VL: B3 VL
B6: Fab hu317-2_L48I / hu317-1_Vκ (Fab, V domains shown)
VH: B3 VH with L48I
VL: B3 VL
B7: Fab hu317-2_M82L / hu317-1_Vκ (Fab, V domains shown)
VH: B3 VH with M82L
VL: B3 VL
B8: Fab hu317-2_V78F / hu317-1_Vκ (Fab, V domains shown)
VH: B3 VH with V78F
VL: B3 VL
B9: Fab hu317-2_N73T / hu317-1_Vκ (Fab, V domains shown)
VH: B3 VH with N73T
VL: B3 VL
B10: Fab hu317-3A / hu317-1_Vκ (Fab, V domains shown)
VH: B3 VH with L48I, L67V, K71V, N73T, S76N, V78F, M82L
VL: B3 VL
B11: Fab hu317-2_L67V / hu317-1_Vκ (Fab, V domains shown)
VH: B3 VH with L67V
VL: B3 VL
B12: Fab hu317-1_Vh / HU317-2_G100Q (Fab, V domains shown)
VH: B3 VH
VL: B3 VL with G100Q
B13: hu326-2 E46K (antibody, V domains shown)
VH: B1 VH with E46K
VL: DIVLTQSPASLAVSPGQRATITCRASESVDNYGYSFMHWYQQKPGQPPKLLIYRASNLESGVPARFSGSGSRTDFTLTINPVEANDTANYYCQQSKEYPTFGGGTKVEIK
notes: mAb; constant regions not restated (hu326-1 is IgG2 / kappa); Back mutation to murine
B14: hu326-2 S84N (antibody, V domains shown)
VH: B1 VH with S84N
VL: B13 VL
notes: as for B13
B15: hu326-2 A76V (antibody, V domains shown)
VH: B1 VH with A76V
VL: B13 VL
notes: mAb; constant regions not restated (hu326-1 is IgG2 / kappa); Forward mutation to human
B16: hu326-2 G63D (antibody, V domains shown)
VH: B1 VH with G63D
VL: B13 VL
notes: as for B13
B17: hu326-2 F95Y (antibody, V domains shown)
VH: B1 VH with F95Y
VL: B13 VL
notes: as for B15
B18: hu326-2 S9P (antibody, V domains shown)
VH: B1 VH with S9P
VL: B13 VL
notes: as for B13
B19: hu326-2 A16E (antibody, V domains shown)
VH: B1 VH with A16E
VL: B13 VL
notes: as for B13
B20: hu326-2 S85N (antibody, V domains shown)
VH: B1 VH with S85N
VL: B13 VL
notes: as for B13
B21: hu326-2 T88N (antibody, V domains shown)
VH: B1 VH with T88N
VL: B13 VL
notes: as for B13
B22: hu326-3G1 (antibody, V domains shown)
VH: B1 VH with S9P, E46K, G63D, F95Y, T109L
VL: B13 VL
notes: Humanized mAb
B23: hu317-4B5 (antibody, V domains shown)
VH: B3 VH with L48I, W52Y, L67V, N73T, S76N, M82L
VL: B3 VL with A25S, Q27E, G100Q
notes: Humanized mAb
B24: hu317-4B2 (antibody, V domains shown)
VH: B3 VH with L48I, W52Y, L67V, N73T, S76N, V78F, M82L
VL: B3 VL with A25S, Q27E, G100Q
notes: Humanized mAb

The binders below were run against T1, human PD-1 expressed on cells (human, UniProt Q15116 25-288) (assay: cell-based or functional assay).
T1 sequence (Q15116 25-288): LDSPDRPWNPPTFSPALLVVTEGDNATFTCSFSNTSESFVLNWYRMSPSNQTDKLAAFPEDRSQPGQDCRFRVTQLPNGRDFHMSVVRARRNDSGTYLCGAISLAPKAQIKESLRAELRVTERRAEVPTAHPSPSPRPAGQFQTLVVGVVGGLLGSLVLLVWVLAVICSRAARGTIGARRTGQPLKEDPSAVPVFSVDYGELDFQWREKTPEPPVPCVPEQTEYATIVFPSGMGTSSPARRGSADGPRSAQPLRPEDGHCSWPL

Assay-1 IL-2 release, EC50 (HuT78/PD-1 + HEK293/OS8/PD-L1) [µg/mL] | Assay-1 IL-2 release, Top line (HuT78/PD-1 + HEK293/OS8/PD-L1) [pg/mL] | Binder
0.112 | 1140 | B1
0.074 | 1060 | B2

These binders were tested against P3Z chimeric PD-1 receptor (human) (assay: cell-based or functional assay).
Chain of P3Z chimeric PD-1 receptor (human) (chain, as listed by the source mutant limits assumed): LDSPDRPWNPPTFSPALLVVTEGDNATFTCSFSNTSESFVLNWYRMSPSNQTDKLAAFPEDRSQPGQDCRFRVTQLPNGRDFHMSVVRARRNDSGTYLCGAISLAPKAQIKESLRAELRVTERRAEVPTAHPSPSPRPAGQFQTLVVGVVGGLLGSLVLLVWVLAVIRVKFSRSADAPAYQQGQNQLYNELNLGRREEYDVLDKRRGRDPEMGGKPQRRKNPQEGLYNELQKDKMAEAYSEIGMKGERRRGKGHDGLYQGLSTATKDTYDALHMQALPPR

Assay-2 IL-2 release, IC50 (HuT78/P3Z + HEK293/PD-L1) [µg/mL] | Assay-2 IL-2 release, Max inhibition (HuT78/P3Z + HEK293/PD-L1) [%] | Binder
0.1 | 84.4 | B1
0.12 | 81 | B2

Biological target: P3Z chimeric PD-1 receptor (human)
Test: cell-based or functional assay
Remark: another data set of the same source

IL-2 release in HuT78/P3Z, EC50 [µg/mL] | IL-2 release in HuT78/P3Z, Max inhibition [%] | Binder
0.3 | 98.8 | B3
0.48 | 96.5 | B4
0.28 | 98.6 | B5
0.37 | 98.5 | B6
0.27 | 98.5 | B7
0.38 | 98 | B8
0.31 | 98.3 | B9
0.35 | 79.7 | B10
0.3 | 98.6 | B11
0.27 | 98.9 | B12

Biological target: T1, human PD-1 expressed on cells
Test: cell-based or functional assay
Remark: another data set of the same source

IL-2 release in HuT78/PD-1, EC50 [µg/mL] | IL-2 release in HuT78/PD-1, Top line [pg/mL] | Binder
0.259 | 1240 | B13
0.213 | 987 | B1
0.126 | 1020 | B14
0.112 | 1000 | B15
0.12 | 1070 | B16
0.135 | 1030 | B17
0.136 | 1020 | B18
0.126 | 1050 | B19
0.104 | 932 | B20
0.135 | 993 | B2

Biological target: P3Z chimeric PD-1 receptor (human)
Test: cell-based or functional assay
Remark: another data set of the same source

IL-2 release in HuT78/P3Z, IC50 [µg/mL] | IL-2 release in HuT78/P3Z, Max inhibition [%] | Binder
0.079 | 95.2 | B13
0.087 | 92.4 | B1
0.06 | 96.5 | B14
0.071 | 96.7 | B15
0.064 | 96.4 | B16
0.166 | 95.6 | B17
0.075 | 96 | B18
0.102 | 95.8 | B21
0.078 | 96.3 | B19
0.093 | 95.6 | B20
0.074 | 93 | B2

These binders were tested against T1, human PD-1 expressed on cells (assay: FACS on PD-1-expressing cells).

EC50 [µg/mL] | Top MFI [MFI] | Binder
0.117 | 129 | B1
0.072 | 163 | B2

Biological target: T1, human PD-1 expressed on cells
Test: FACS on PD-1-expressing cells
Remark: another data set of the same source

EC50 [µg/mL] | Binder
0.132 | B13
0.317 | B1
0.131 | B14
0.102 | B15
0.139 | B16
0.097 | B17
0.145 | B18
0.098 | B21
0.155 | B19
0.11 | B20
0.118 | B2

What follows are binders tested against T2, wild-type human PD-1 recombinant protein (PD-1/His or PD-1/Fc, not said which) (human, UniProt Q15116 21-168) (assay: ELISA on coated recombinant PD-1).
T2 construct: also called WT PD-1
T2 sequence (Q15116 21-168 limits assumed): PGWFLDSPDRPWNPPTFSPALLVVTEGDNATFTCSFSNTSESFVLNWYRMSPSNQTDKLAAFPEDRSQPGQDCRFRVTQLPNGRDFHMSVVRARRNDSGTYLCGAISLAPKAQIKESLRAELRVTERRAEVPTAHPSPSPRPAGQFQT

EC50 [µg/mL] | Binder
0.088 | B22
0.057 | B23
0.066 | B24

From patent US8735553 (BEIGENE SWITZERLAND, dated 2014)
